Measured values published in patent US20230364186A1 (CURA THERAPEUTICS, published 2023).
One block for each molecule: values may come before it.

Key:
[1] = molecular target: T1, Human active TGFβ1 (human, UniProt P01137 279-390); assay: blocking of active TGFβ1 (1 ng/mL) in solution, 30 min in PBS; free TGFβ1 by ELISA
T1 construct: mature; also called TGFB1
Source text: TGFβ causes a wide range of immune suppression in several immune cell types including inhibition of crucial early innate IFN responses.

[2] = molecular target: active TGFβ3 (UniProt P10600); assay: blocking of active TGFβ3 (1 ng/mL) in solution, 30 min in PBS; free TGFβ3 by ELISA
active TGFβ3, sequence (P10600 301-412): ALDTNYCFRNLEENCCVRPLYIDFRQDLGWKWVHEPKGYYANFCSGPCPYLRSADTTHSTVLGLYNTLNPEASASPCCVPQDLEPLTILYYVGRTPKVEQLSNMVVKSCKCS

T1 sequence (P01137 279-390 limits assumed): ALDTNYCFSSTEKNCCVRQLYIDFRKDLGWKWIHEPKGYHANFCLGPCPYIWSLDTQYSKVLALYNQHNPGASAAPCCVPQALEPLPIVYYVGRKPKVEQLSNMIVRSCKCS

IC50 [1]: 1.29 nM
IC50 [2]: 3.6 nM
Molecule: FIST (monovalent FIST; IL2-sTBRII)

IC50 [1]: 0.02 nM
B1: TβRII isoform 2 (receptor, UniProt P37173-2 24-184, looked up)
chain: IPPHVQKSDVEMEAQKDEIICPSCNRTAHPLRHINNDMIVTDNNGAVKFPQLCKFCDVRFSTCDNQKSCMSNCSITSICEKPQEVCVAVWRKNDENITLETVCHDPKLPYHDFILEDAASPKCIMKEKKKPGETFFMCSCSSDECNDNIIFSEEYNTSNPD
notes: also called TβRll (isoform II); control (TβRII isoform 2)
